The text below walks through data of PMC4634933, “Development of a Novel PET Tracer [^18F]AlF-NOTA-C6 Targeting MMP2 for Tumor Imaging” (PLoS ONE, 2015).

The subject of one data set is SKOV3 tumor-bearing mice. The data set can be described thus: in vivo. How it is done:
(§1) Tumor-bearing mice were prepared via a subcutaneous injection of cancer cells into the forelegs of female (SKOV3) or male (PC3) BALB/c nude mice (B&K Universal, Shanghai, China) at 6 weeks of age (body weight 18–20 g). When tumors were palpable, i.e., approximately 5 mm in diameter, the mice were used for biodistribution and PET imaging experiments. Biodistribution experiments were performed via intravenous administration of [^18F]AlF-NOTA-C6 (0.74 MBq) to mice bearing SKOV3 tumors. At 30, 60, and 120 min PI (n = 4 mice/timepoint), the mice were euthanized and the biological samples of interest (e.g., blood, tumor, muscle, lung, spleen, kidney, liver, and small intestine) were harvested and weighed. In the blocking experiments, the mice (n = 4) were pre-blocked with unlabeled C6 at 10 mg/kg body weight prior to the tracer injection; at 60 min PI of [^18F]AlF-NOTA-C6, the mice were euthanized as previously described. The radioactivity values of the tissues and injection standards were subsequently measured in a γ-counter. The samples were corrected for radioactive decay to calculate the percent of injected dose (ID) to grams of tissue (%ID/g) relative to a standard that represented the injected dose.

The nature of a further data set: in vivo. Details: species or system mice. To be noted: female, BALB/c nude, mouse, in vivo, iv, 0.74 MBq, total radioactivity. How it is done: as §1
The test system of a further data set is SKOV3 tumors. The data set can be described thus: MicroPET imaging of SKOV3 tumor-bearing mice. The class given is in vivo. As to conditions: 3.7 MBq via tail vein, non-blocked. How it is done: Tumor-bearing mice were prepared via a subcutaneous injection of cancer cells into the forelegs of female (SKOV3) or male (PC3) BALB/c nude mice (B&K Universal, Shanghai, China) at 6 weeks of age (body weight 18–20 g). When tumors were palpable, i.e., approximately 5 mm in diameter, the mice were used for biodistribution and PET imaging experiments. PET imaging was performed on 4 mice bearing SKOV3 tumors using a microPET scanner; prior to the tracer injection, 2 mice were pre-blocked with unlabeled C6 at 10 mg/kg body weight, and 2 mice were not pre-blocked. Pre-blocked and non-blocked mice were then administered 3.7 MBq of [^18F]AlF-NOTA-C6, via tail vein injection. At 30, 60, and 120 min post-injection (PI), the mice were anesthetized with 1–2% isoflurane, positioned supine, immobilized, and imaged. The scan time was 10 min. The images were reconstructed using the ordered subset expectation maximization method; no attenuation correction was used.

The format of data set [1] is physicochemical. How it is done:
To examine in vitro stability, approximately 400 μL of [^18F]AlF-NOTA-C6 and 2 mL of physiological saline at room temperature, or 2 mL of human serum at 37°C, were mixed and incubated for 4 h. During the incubation, 200-μL samples were collected at 2 and 4 h. The samples were subsequently analyzed by radio-HPLC.

The test system of another data set is PC3 tumors. The data set can be described thus: MicroPET imaging of PC3 tumor-bearing mice. The class given is in vivo. To be noted: 3.7 MBq via tail vein, greatest radioactivity concentration at 30 min PI.
For another data set, the system named is gelatinase. Details: method as in PMID 19424760. To be noted: cited from earlier work.

Bridge positions count the residues as written; N and C are the ends. Peptide text beside a SMILES is read from it. * marks the point of attachment. NOTA = O=C(O)CN1CCN(CC(=O)O)CCN(CC(=O)*)CC1

As for `CC(C)C[C@@H]1NC(=O)[C@H]([C@@H](C)O)NC(=O)[C@H](Cc2ccccc2)NC(=O)CNC(=O)[C@H](Cc2c[nH]c3ccccc23)NC(=O)[C@H](Cc2c[nH]cn2)NC(=O)[C@H](C)NC(=O)[C@@H](NC(=O)CN2CCN(CC(=O)O)CCN(CC(=O)O)CC2)CCCCNC(=O)C[C@@H](C(N)=O)NC1=O` [[^18F]AlF-NOTA-C6] ({NOTA}-KAHWGFTLD-NH2; lactam 1-9), in the data set on SKOV3 tumor-bearing mice (SKOV3 tumor-bearing mice, C6 10 mg/kg pre-block versus non-blocked, 60 min PI, P < 0.05), the “change of tumor tissue uptake after pre-injection of excess C6” value is given as “marked reduction”. The “uptake ratio of tumor-to-blood” value in the data set on SKOV3 tumor-bearing mice (mouse, in vivo) is above 2 fold. The tissue uptake (in general, the share of the injected amount in each gram of the tissue) at 0.5 h in the data set “in vivo” (Fat uptake) is 0.44 ± 0.08 %ID/g; in “in vivo” (Gut uptake), 0.47 ± 0.09 %ID/g; in “in vivo” (Kidney uptake) it was 7.14 ± 0.05 %ID/g; in “in vivo” (Muscle uptake) it was 0.57 ± 0.15 %ID/g; in “in vivo” (Pancreas uptake) it was 0.35 ± 0.01 %ID/g; in the data set “in vivo” (Sexual gland uptake), 0.5 ± 0.12 %ID/g. The tissue uptake at 0.5 h in the data set “in vivo” (Stomach uptake) was 0.49 ± 0.31 %ID/g; in the data set “in vivo” (Thyroid uptake), 0.88 ± 0.13 %ID/g; in “in vivo” (Tumor uptake), 1.2 ± 0.24 %ID/g. Moreover, the tissue uptake at 1 h in the data set “in vivo” (Fat uptake) came out at 0.18 ± 0.1 %ID/g; in the data set “in vivo” (Gut uptake), 0.13 ± 0.07 %ID/g; in the data set “in vivo” (Kidney uptake), 4.55 ± 1.38 %ID/g; in “in vivo” (Muscle uptake) it was 0.08 ± 0.04 %ID/g; in the data set “in vivo” (Pancreas uptake) it was 0.16 ± 0.14 %ID/g; in the data set “in vivo” (Sexual gland uptake), 0.05 ± 0.03 %ID/g. For the same compound, the tissue uptake at 1 h in “in vivo” (Stomach uptake) was determined as 0.21 ± 0.19 %ID/g; in “in vivo” (Thyroid uptake), 0.16 ± 0.07 %ID/g; in “in vivo” (Tumor uptake), 0.75 ± 0.25 %ID/g. In addition, the tissue uptake at 2 h came to 0.12 ± 0.07 %ID/g in “in vivo” (Fat uptake); 0.12 ± 0.07 %ID/g in “in vivo” (Gut uptake); 4.72 ± 0.31 %ID/g in “in vivo” (Kidney uptake); 0.21 ± 0.08 %ID/g in “in vivo” (Muscle uptake); 0.09 ± 0.06 %ID/g in “in vivo” (Pancreas uptake); 0.09 ± 0.02 %ID/g in “in vivo” (Sexual gland uptake). The tissue uptake at 2 h in the data set “in vivo” (Stomach uptake) worked out at 0.07 ± 0.02 %ID/g; in “in vivo” (Thyroid uptake), 0.3 ± 0.16 %ID/g; in “in vivo” (Tumor uptake), 0.27 ± 0.14 %ID/g. Moreover, the “tumor radioactivity concentration in PET” value in the data set on SKOV3 tumors (30 and 60 min PI) is recorded as “visualized”. The “uptake of the tumors in PET” value in the data set on SKOV3 tumors (120 min PI) is listed as “negligible”. Besides, the radioactive degradation products result in data set [1] is given as “absence”. Moreover, in data set [1] (physiological saline, room temperature, 4 h incubation, radio-HPLC), the “radioactivity in the form of [18F]AlF-NOTA-C6” value is on record as above 95%. In addition, the “tumor detection via PET” value with PC3 tumors was “detected”.

In the case of “c(Lys-Ala-His-Trp-Gly-Phe-Thr-Leu-Asp)NH2 (sidechain bridge or staple) [C6]”, the “increase in gelatinase inhibition relative to CTT” value in the data set on gelatinase is reported as 4 fold.
